Measurements: patent US10806913B2, “Methods for better delivery of active agents to tumors” (Sorrento Therapeutics, Inc., priority 2015, dated 2020)
Entries after “also recorded” stand apart in the source; their conditions may differ.

Columns and labels:
[1] = In vivo near infrared imaging of lymphatic delivery after administration to the skin; design: species or system rats; conditions: fluorescently tagged, needle array placed dorsally, FIG. 11 and 12
Method: The ability to deliver the protein therapeutic Etanercept directly to the lymphatic system via administration to the skin was tested. Etanercept was fluorescently tagged for in vivo visualization using near infrared light as previous described, see Sevick-Muraca et al., J. Clin Invest., 124(3), 905-914 (2014), which is incorporated by reference herein for its teachings thereof. Etanercept was administered to the skin of rats by μlacing a delivery device comprising an array of needles dorsally on the rats.

[2] = Blood serum absorption rate after delivery to the skin; assay type: in vivo; conditions: skin administration compared to i.v., s.c. or i.d.; FIG. 14
[3] = Biodistribution across tissue types after delivery to the skin; assay type: in vivo, rats; conditions: skin delivery compared to i.v., s.c. or i.d., FIG. 13
Text: The biodistribution of etanercept across multiple tissues types following delivery was investigated.

## Etanercept
[1]
  lymphatic uptake and distribution to lymph nodes: uptake by the lymphatic vasculature and subsequent distribution to primary and secondary lymph node tissues
[1]; listed as Etanercept
  lymphatic uptake and distribution to lymph nodes: delivery directly to the lymphatic vasculature and lymph node tissues; also recorded: delivery to the axillary and mandibular lymph nodes
[2]
  blood serum absorption rate: approximately the same
[3]
  levels within the axillary and inguinal lymph nodes: much higher levels
[3]; listed as Etanercept
  levels within the axillary and inguinal lymph nodes: increased delivery to the lymph nodes
